From patent publication US20040009486A1, “Compositions and methods utilizing DNA polymerases” (priority 1999, published 2004)
Where two headings read alike, the source gives them in different places.

Legend:
pFL-35:pBluescript = assay: Fidelity assay with unlabeled ddNTPs; assay type: biochemical; settings: compared to JDF-3 P410L/A485T
Experimental: A second set of fidelity assays was conducted to address the contribution of rhodamine dye to high ddG:dT and ddT:dC misinsertion frequency. A fluorescently labeled primer (2.5 nM pFL35) opposite dT in the template strand was extended, in reactions containing either correct (ddA) or incorrect (ddG) unlabeled ddNTPs (at concentrations of 1.25 nM to 10 nM) ([…]). Similar experiments were performed in which primer extension occured opposite dC in the template strand, in the presence of correct (ddG) or incorrect (ddT) unlabeled ddNTPs (FIG. 28 panel B). Incorporation of ddNMP at the 3′-end of the primer was detected as a shift in primer mobility.
Fidelity assays using unlabeled ddNTPs (10 μl) contained 2.5 nM primer:template (pFL-35:pBluescript), 1 U DNA polymerase, and 1× reaction buffer. Complementary or non-complementary ddNTP was added to the reaction at concentrations of 0, 1.25, 10, 50, or 100 nM. The reactions were incubated in a Perkin-Elmer 9600 for 25 cycles as follows: 96° C. for 10 s, 50° C. for 5 s, and 60° C. for 30 s, and then analyzed as describe above.

[1] = test system: rhodamine labeled-ddNTP and primer:template (pBluescript II); assay: Steady-state kinetics for rhodamine labeled ddNTPs and primer:template; assay type: biochemical; settings: 60° C.
Experimental: Km and Vmax values for rhodamine labeled-ddNTP incorporation were measured by incubating 50 nM primer: template with limiting amounts of polymerase (0.1 units or 5 nM) and varying concentrations of rhodamine labeled-ddNTP ranging from 0.1 nM to 500 nM. Samples were incubated at 60° C. for 10 minutes. The reactions were then quenched with ice-cold 0.2 M EDTA (final concentration). Unincorporated rhodamine labeled ddNTPs were removed by purifying the extended primer:templates on CENTRI-SEP spin columns. Reactions were then dried, and the pellets dissolved in 3:1 formamide:EDTA/blue dextran and analyzed by 6% denaturing PAGE on an ABI 377 sequencer. All peak area quantitations were performed using 3.1.2 GeneScan software and Km and Vmax values were calculated using Lineweaver-Burk plots.
Km and Vmax values for primer:template were measured with limiting amounts of enzyme (0.1 units or 5 nM) in the presence of 100 nM of R110-ddGTP and varying concentrations of primer:template (pBL31G:pBluescript II) ranging from 0.5 to 100 nM. Samples were incubated for 10 minutes at 60° C. The reactions were then quenched, purified from unincorporated rhodamine labeled-ddNTPs, and analyzed as described above.
Km and Vmax values for rhodamine-ddNTP incorporation were measured as described Patel, P. H. et al. (2001). J. Biol. Chem. 276, 5044-51 by incubating 50 nM primer:template with limiting amounts of DNA polymerase (0.1 units, 5 nM) and varying concentrations of rhodamine labeled-ddNTP (0.1 nM to 500 nM). All single nucleotide incorporations with R6G-ddATP and TAMRA-ddATP employed pBL34A:pBluescript II, while reactions with TAMRA-ddCTP were performed with pBL25C:pBluescript II. The 10× reaction buffer used for JDF-3 DNA polymerase contained 200 mM Tris-HCl (pH 8.8), 100 mM KCl, 100 mM (NH4)2SO4, and 20 mM MgSO4, while the 10× reaction buffer employed with the Taq F667Y mutant consisted of 260 mM Tris-HCl (pH 9.5) and 65 mM MgCl2. Samples were incubated at 60° C. for 10 minutes, and the reactions were quenched with ice-cold 0.2 M EDTA (final concentration). Unincorporated rhodamine-ddNTPs were removed with CENTRI-SEP spin columns according to the manufacturer's manual. Reactions were dried, and the pellets were dissolved in 3:1 formamide:EDTA/blue dextran and analyzed by 6% denaturing PAGE on an ABI 377 sequencer. Peak area quantitations were performed using 3.1.2 GeneScan® software and Km and Vmax values were calculated using Lineweaver-Burk plots.
Km and Vmax values for primer:template were measured with limiting amounts of enzyme (0.1 units, 5 nM) in the presence of 100 nM dye-ddNTP and varying concentrations of primer:template (0.5-100 nM). Single nucleotide incorporations with R110-ddGTP employed pBL31G:pBluescript II, while reactions with ROX-ddCTP were carried out with pBL25C:pBluescript II. Samples were incubated and analyzed as described above.

Substance: Taq F667Y: ThermoSequenase, Taq F667Y mutant DNA polymerase from Amersham Pharmacia Biotech
- misincorporation of unlabeled ddNTPs (pFL-35:pBluescript): greater tendency to misincorporate unlabeled ddG opposite dT, and unlabeled ddT opposite dC
- Vmax(fmol/min) TAMRA-ddCTP ([1]; pBL25C:pBluescript): 2.3 fmol/min
- Km ([1]; pBL25C:pBluescript, read-out: Km(nM) TAMRA-ddCTP): 0.3 nM
- Vmax(fmol/min) Primer:template ([1]; pBL31G:pBluescript, 100 nM R110-ddGTP): 7.4 fmol/min
- Km ([1]; pBL31G:pBluescript, 100 nM R110-ddGTP, read-out: Km(nM) Primer:template): 8 nM
- Vmax(fmol/min) R6G-ddATP ([1]; pBL34A:pBluescript): 9 fmol/min
- Vmax(fmol/min) TAMRA-ddATP ([1]; pBL34A:pBluescript): 1.9 fmol/min
- Km ([1]; pBL34A:pBluescript, read-out: Km(nM) R6G-ddATP): 0.35 nM
- Km ([1]; pBL34A:pBluescript, read-out: Km(nM) TAMRA-ddATP): 0.6 nM
